Results reported in publication PMC6701106.
Positions of bridges follow the written chain, without caps; N, C: chain ends. No end group written: not given here.

Target: mAb3F3 (mouse)
Assay: SPR; Biacore T200; antibodies injected for 60 s at 10 μl/min in the active flow cell; BSA conjugated peptide antigens flowed at 1.25 to 20 nM

Binder | Kd [nM] | koff [s⁻¹] | kon [M⁻¹ s⁻¹]
CGLRSFTRQARVVGGTDADEGEWP [Mat-Linear (human Prss14/ST14 aa604-627, linear 24mer)] | 406 | 0.0105 | 25900
CGLRSFTRQARVVGGTDADEGEWPC (disulfide 1-25; also: conjugated to BSA) [BSA conjugated Mat-Loop (human Prss14/ST14 aa604-627 plus C-terminal cysteine, circular 25mer)] | 5.33 | 0.00342 | 641000
